# Numbering of substitutions follows the chain as printed. Numbers in names are those of the source.
# T1: recombinant human IL-17E (R&D Systems Cat#1258-IL/CF) (human, UniProt Q9H293 33-177)
# T1 construct: also called huIL-17E; hu IL-17E
# T1 sequence (looked up): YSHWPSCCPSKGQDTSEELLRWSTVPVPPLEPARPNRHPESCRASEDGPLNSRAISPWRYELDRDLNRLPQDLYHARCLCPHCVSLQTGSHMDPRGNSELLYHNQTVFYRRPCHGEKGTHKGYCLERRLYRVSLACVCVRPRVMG
# T2: recombinant human IL-17A (SEQ ID NO: 76) (human, UniProt Q16552 24-155, limits assumed)
# T2 construct: homodimer; also called huIL-17A; rhuIL-17A
# T2 sequence: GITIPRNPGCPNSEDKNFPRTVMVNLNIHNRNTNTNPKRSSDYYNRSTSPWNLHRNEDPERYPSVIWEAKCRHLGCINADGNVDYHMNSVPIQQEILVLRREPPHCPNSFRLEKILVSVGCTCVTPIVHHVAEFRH
# T3: recombinant human IL-17C (R&D Systems Cat#1234IL/CF) (human, UniProt Q9P0M4 19-197)
# T3 construct: also called huIL-17C; hu IL-17C
# T3 sequence (looked up): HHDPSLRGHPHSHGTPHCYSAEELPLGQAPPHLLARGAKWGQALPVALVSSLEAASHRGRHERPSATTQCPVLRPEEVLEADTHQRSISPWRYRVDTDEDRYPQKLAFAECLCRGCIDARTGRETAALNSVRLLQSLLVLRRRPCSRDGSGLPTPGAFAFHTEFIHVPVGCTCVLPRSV
# T4: recombinant human IL-17D (R&D Systems Cat#1504IL/CF) (human, UniProt Q8TAD2 18-202, limits assumed)
# T4 construct: also called huIL-17D; hu IL-17D
# T4 sequence (looked up): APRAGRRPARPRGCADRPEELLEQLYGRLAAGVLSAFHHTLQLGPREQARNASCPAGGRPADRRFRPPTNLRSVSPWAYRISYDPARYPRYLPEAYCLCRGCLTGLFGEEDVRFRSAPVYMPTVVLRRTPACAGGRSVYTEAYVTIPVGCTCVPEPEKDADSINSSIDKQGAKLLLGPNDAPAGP
# T5: recombinant human IL-17A/F heterodimer (human, UniProt Q16552 24-155; Q96PD4 31-163, limits assumed)
# T5 construct: heterodimer of an IL-17A subunit and an IL-17F subunit; also called huIL-17A/F; rhuIL-17A/F
# T5 sequence (looked up) 1: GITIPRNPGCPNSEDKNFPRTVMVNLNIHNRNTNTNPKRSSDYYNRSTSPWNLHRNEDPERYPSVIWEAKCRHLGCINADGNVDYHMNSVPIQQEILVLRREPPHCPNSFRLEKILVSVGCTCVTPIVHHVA
# T5 sequence (looked up) 2: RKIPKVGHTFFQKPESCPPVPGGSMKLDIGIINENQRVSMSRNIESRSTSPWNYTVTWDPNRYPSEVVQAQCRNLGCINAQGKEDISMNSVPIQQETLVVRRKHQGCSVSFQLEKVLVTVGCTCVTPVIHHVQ
# T6: recombinant human IL-17B (R&D Systems) (human, UniProt Q9UHF5 21-180)
# T6 construct: also called huIL-17B; hu IL-17B
# T6 sequence (looked up): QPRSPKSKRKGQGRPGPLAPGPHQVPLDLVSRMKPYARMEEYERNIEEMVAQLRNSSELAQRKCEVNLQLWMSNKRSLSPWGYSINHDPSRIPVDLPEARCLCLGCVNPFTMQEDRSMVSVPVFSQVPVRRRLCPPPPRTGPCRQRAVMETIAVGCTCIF
# T7: recombinant mouse IL-17F (SEQ ID NO: 84) (mouse, UniProt Q7TNI7 29-161)
# T7 construct: also called mIL-17F; rmIL-17F
# T7 sequence: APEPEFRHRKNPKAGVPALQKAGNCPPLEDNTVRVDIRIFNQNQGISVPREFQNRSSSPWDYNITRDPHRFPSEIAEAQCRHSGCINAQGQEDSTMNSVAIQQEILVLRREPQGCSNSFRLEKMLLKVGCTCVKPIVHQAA
# T8: recombinant rat TNFα (R&D Systems Cat#510-RT/CF) (rat, UniProt P16599 80-235)
# T8 sequence (looked up): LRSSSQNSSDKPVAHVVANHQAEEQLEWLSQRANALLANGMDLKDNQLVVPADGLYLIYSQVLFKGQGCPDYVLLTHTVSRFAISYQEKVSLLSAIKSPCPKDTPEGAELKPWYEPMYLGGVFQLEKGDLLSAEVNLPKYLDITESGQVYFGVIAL
# T9: recombinant rat IL-4 (R&D Systems Cat#504-RL/CF) (rat, UniProt P20096 25-147, limits assumed)
# T9 sequence (looked up): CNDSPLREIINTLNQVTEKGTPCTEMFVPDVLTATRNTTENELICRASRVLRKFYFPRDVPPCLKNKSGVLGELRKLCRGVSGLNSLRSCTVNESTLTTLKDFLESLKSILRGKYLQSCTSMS
# T10: recombinant rat IL-17A (SEQ ID NO: 85) (rat, UniProt Q61453 18-150)
# T10 construct: also called rratIL-17A; rIL-17A
# T10 sequence: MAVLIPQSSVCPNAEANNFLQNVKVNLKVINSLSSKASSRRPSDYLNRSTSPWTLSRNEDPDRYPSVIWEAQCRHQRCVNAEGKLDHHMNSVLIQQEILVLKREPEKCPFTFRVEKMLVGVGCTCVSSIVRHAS
# B1: XAB4 (antibody, human IgG1, kappa, V domains shown)
# VH: EVQLVESGGDLVQPGGSLRLSCAASGFTFSSYWMSWVRQAPGKGLEWVANIKQDGSEKYYVDSVKGRFTISRDNAKNSLYLQMNSLRAEDTAVYYCARDRGSLYYWGQGTLVTVSS
# VL: AIQLTQSPSSLSASVGDRVTITCRPSQGINWELAWYQQKPGKAPKLLIYDASSLEQGVPSRFSGSGSGTDFTLTISSLQPEDFATYYCQQFNSYPLTFGGGTKVEIKR
# notes: also called MB435 N56Q
# B2: XAB1 (antibody, human IgG1, kappa, V domains shown)
# VH: B1 VH
# VL: B1 VL with N30I, W31S, E32A, Q56N
# notes: human IgG1/kappa monoclonal antibody; also called parental XAB1; XAB1 IgG
# Key:
# [1] = target: T1, recombinant human IL-17E (R&D Systems …); test: ELISA, coated antigen, Ab 1 µg/ml
# [2] = target: T2, recombinant human IL-17A (SEQ ID NO: 76); test: ELISA, coated antigen, Ab 1 µg/ml
# [3] = target: T3, recombinant human IL-17C (R&D Systems …); test: ELISA, coated antigen, Ab 1 µg/ml
# [4] = target: T4, recombinant human IL-17D (R&D Systems …); test: ELISA, coated antigen, Ab 1 µg/ml
# [5] = target: T5, recombinant human IL-17A/F heterodimer; test: ELISA, coated antigen, Ab 1 µg/ml
# [6] = target: T1, recombinant human IL-17E (R&D Systems …); test: ELISA, coated antigen
# [7] = target: T6, recombinant human IL-17B (R&D Systems); test: ELISA, coated antigen
# [8] = target: T7, recombinant mouse IL-17F (SEQ ID NO: 84); test: ELISA, coated antigen
# [9] = target: T3, recombinant human IL-17C (R&D Systems …); test: ELISA, coated antigen
# [10] = target: T4, recombinant human IL-17D (R&D Systems …); test: ELISA, coated antigen
# [11] = target: recombinant rat IL-23 (R&D Systems Cat#3136-RL-010/CF) (rat); test: ELISA, coated cytokine, Ab 10 µg/ml
# [12] = target: T8, recombinant rat TNFα (R&D Systems …); test: ELISA, coated cytokine, Ab 10 µg/ml
# [13] = target: T9, recombinant rat IL-4 (R&D Systems …); test: ELISA, coated cytokine, Ab 10 µg/ml
# [14] = target: T10, recombinant rat IL-17A (SEQ ID NO: 85); test: ELISA, coated cytokine, Ab 10 µg/ml
Binder,O.D. [1] [O.D.],O.D. [2] [O.D.],O.D. [3] [O.D.],O.D. [4] [O.D.],O.D. [5] [O.D.],binding result [6],binding result [7],binding result [8],binding result [9],binding result [10],O.D. [11] [O.D.],O.D. [12] [O.D.],O.D. [13] [O.D.],O.D. [14] [O.D.]
B1,0.035,2.47,0.036,0.034,2.14,no binding (tested: 1 µg/ml),no binding (tested: 1 µg/ml),no binding (tested: 1 µg/ml),no binding (tested: 1 µg/ml),no binding (tested: 1 µg/ml),0.023,0.02,0.026,3.48
B2,0.033,1.3,0.032,0.031,1.22,no binding (tested: 1 µg/ml),no binding (tested: 1 µg/ml),no binding (tested: 1 µg/ml),no binding (tested: 1 µg/ml),no binding (tested: 1 µg/ml),0.011,0.003,0.017,1.2

# — patent US20180194839A1 (Novartis, published 2018)
